Measured values reported in patent US20090099093A1 (Stanford University, published 2009).
No end group written: not given here.

B1: SF peptide (SFLLRN) (peptide)
peptide: SFLLRN
B2: RA peptide (RADSRADC) (peptide)
peptide: RADSRADC
B3: PLG-OH (peptide)
peptide: Pro-Leu-Gly-OH

What follows are binders tested against Mushroom tyrosinase (mushroom, UniProt C7FF04 1-392) (assay: cell-based or functional assay).
Chain of Mushroom tyrosinase (C7FF04 1-392): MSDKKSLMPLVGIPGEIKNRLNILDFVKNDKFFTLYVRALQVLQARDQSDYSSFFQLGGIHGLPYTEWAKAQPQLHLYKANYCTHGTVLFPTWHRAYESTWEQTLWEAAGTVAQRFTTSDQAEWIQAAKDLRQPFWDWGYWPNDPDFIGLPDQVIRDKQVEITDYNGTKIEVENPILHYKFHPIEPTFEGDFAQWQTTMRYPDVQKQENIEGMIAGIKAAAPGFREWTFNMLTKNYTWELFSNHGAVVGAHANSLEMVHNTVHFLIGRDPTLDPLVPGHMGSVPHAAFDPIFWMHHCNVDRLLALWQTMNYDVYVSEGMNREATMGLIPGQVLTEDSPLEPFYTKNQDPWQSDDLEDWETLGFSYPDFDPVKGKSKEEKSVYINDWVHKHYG

| IC50 (inhibition of mushroom tyrosinase activity, dopachrome at 475 nm, L-tyrosine substrate) [µM] | Binder |
| --- | --- |
| 8000 | B1 |
| 123 | B2 |
| 2730 | B3 |
